Test results taken from PMC10151503, “Specific DNA binding of archaeal histones HMfA and HMfB”.

Assays:
HMfB [1] = molecular target: T1, HMfB (Methanothermus fervidus, UniProt P19267 1-69); assay: MST; second (nonspecific) step; Hill h 1.30 ± 0.38; MST: 50 mM Tris-HCl pH 8, 75 mM KCl, 20 nM DNA (40 nM diluted 1:1), 5 min at room temperature (0.2% Tween20 where noted); TPM: 50 mM Tris-HCl pH 7, 75 mM KCl; settings: protein: recombinant; chain copies: 2; label: 5' Cy5 top strand; blunt
HMfA [2] = molecular target: T2, HMfA (Methanothermus fervidus, UniProt P48781 1-69); assay: MST; Hill h 1.23 ± 0.16; MST: 50 mM Tris-HCl pH 8, 75 mM KCl, 20 nM DNA (40 nM diluted 1:1), 5 min at room temperature (0.2% Tween20 where noted); TPM: 50 mM Tris-HCl pH 7, 75 mM KCl; settings: protein: recombinant; chain copies: 2; label: 5' Cy5 top strand; blunt
T2 sequence (P48781 whole entry): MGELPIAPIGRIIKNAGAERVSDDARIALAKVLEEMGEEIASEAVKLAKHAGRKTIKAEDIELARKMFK

HMfB [3] = molecular target: T1, HMfB; assay: MST; second (nonspecific) step; Hill h 0.564 ± 0.30; error exceeds value; MST: 50 mM Tris-HCl pH 8, 75 mM KCl, 20 nM DNA (40 nM diluted 1:1), 5 min at room temperature (0.2% Tween20 where noted); TPM: 50 mM Tris-HCl pH 7, 75 mM KCl; settings: protein: recombinant; chain copies: 2; label: 5' Cy5 top strand; blunt
HMfA [4] = molecular target: T2, HMfA; assay: MST; Hill h 0.992 ± 0.21; MST: 50 mM Tris-HCl pH 8, 75 mM KCl, 20 nM DNA (40 nM diluted 1:1), 5 min at room temperature (0.2% Tween20 where noted); TPM: 50 mM Tris-HCl pH 7, 75 mM KCl; settings: protein: recombinant; chain copies: 2; label: 5' Cy5 top strand; blunt
HMfB [5] = molecular target: T1, HMfB; assay: MST; first (specific) step; Hill h 7.45 ± 3.5; MST: 50 mM Tris-HCl pH 8, 75 mM KCl, 20 nM DNA (40 nM diluted 1:1), 5 min at room temperature (0.2% Tween20 where noted); TPM: 50 mM Tris-HCl pH 7, 75 mM KCl; settings: protein: recombinant; chain copies: 2; label: 5' Cy5 top strand; blunt
HMfB [6] = molecular target: T1, HMfB; assay: MST; first (specific) step; Hill h 1.24 ± 0.91; MST: 50 mM Tris-HCl pH 8, 75 mM KCl, 20 nM DNA (40 nM diluted 1:1), 5 min at room temperature (0.2% Tween20 where noted); TPM: 50 mM Tris-HCl pH 7, 75 mM KCl; settings: protein: recombinant; chain copies: 2; label: 5' Cy5 top strand; blunt
HMfB D14A K30A E34A [7] = molecular target: T3, HMfB D14A K30A E34A (Methanothermus fervidus, UniProt P19267 1-69, D14A;K30A;E34A); assay: MST; 0.2% Tween20; Hill h 3.51 ± 0.77; MST: 50 mM Tris-HCl pH 8, 75 mM KCl, 20 nM DNA (40 nM diluted 1:1), 5 min at room temperature (0.2% Tween20 where noted); TPM: 50 mM Tris-HCl pH 7, 75 mM KCl; settings: protein: recombinant; chain copies: 4; label: 5' Cy5 top strand; blunt
T3 sequence (P19267 whole entry D14A/K30A/E34A): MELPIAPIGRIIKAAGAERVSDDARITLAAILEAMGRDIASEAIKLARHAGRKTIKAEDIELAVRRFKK

HMfB [8] = molecular target: T1, HMfB; assay: MST; second (nonspecific) step; Hill h 1.44 ± 0.47; MST: 50 mM Tris-HCl pH 8, 75 mM KCl, 20 nM DNA (40 nM diluted 1:1), 5 min at room temperature (0.2% Tween20 where noted); TPM: 50 mM Tris-HCl pH 7, 75 mM KCl; settings: protein: recombinant; chain copies: 2; label: 5' Cy5 top strand; blunt
HMfA [9] = molecular target: T2, HMfA; assay: MST; Hill h 1.08 ± 0.21; MST: 50 mM Tris-HCl pH 8, 75 mM KCl, 20 nM DNA (40 nM diluted 1:1), 5 min at room temperature (0.2% Tween20 where noted); TPM: 50 mM Tris-HCl pH 7, 75 mM KCl; settings: protein: recombinant; chain copies: 2; label: 5' Cy5 top strand; blunt
HMfB D14A K30A E34A [10] = molecular target: T3, HMfB D14A K30A E34A; assay: MST; 0.2% Tween20; Hill h 4.09 ± 0.62; MST: 50 mM Tris-HCl pH 8, 75 mM KCl, 20 nM DNA (40 nM diluted 1:1), 5 min at room temperature (0.2% Tween20 where noted); TPM: 50 mM Tris-HCl pH 7, 75 mM KCl; settings: protein: recombinant; chain copies: 4; label: 5' Cy5 top strand; blunt
HMfB [11] = molecular target: T1, HMfB; assay: MST; Hill h 3.30 ± 0.97; MST: 50 mM Tris-HCl pH 8, 75 mM KCl, 20 nM DNA (40 nM diluted 1:1), 5 min at room temperature (0.2% Tween20 where noted); TPM: 50 mM Tris-HCl pH 7, 75 mM KCl; settings: protein: recombinant; chain copies: 2; label: 5' Cy5 top strand; blunt
HMfA [12] = molecular target: T2, HMfA; assay: MST; Hill h 1.08 ± 0.19; MST: 50 mM Tris-HCl pH 8, 75 mM KCl, 20 nM DNA (40 nM diluted 1:1), 5 min at room temperature (0.2% Tween20 where noted); TPM: 50 mM Tris-HCl pH 7, 75 mM KCl; settings: protein: recombinant; chain copies: 2; label: 5' Cy5 top strand; blunt

T1 sequence (P19267 whole entry): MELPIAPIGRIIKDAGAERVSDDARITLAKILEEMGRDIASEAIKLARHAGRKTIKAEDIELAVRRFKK

B1: Clone20L 78 bp (dsDNA)
DNA 1: GGATCCCTGTCGGCACAGTTGAGCGATCAAAAACGCCGTAGATTATCGCAGCATCGTAACAGGATAGTGAAGAAGACT
DNA 2: AGTCTTCTTCACTATCCTGTTACGATGCTGCGATAATCTACGGCGTTTTTGATCGCTCAACTGTGCCGACAGGGATCC
Kd (HMfB [1]): 4.11 ± 1 µM | Kd (HMfA [2]): 8.09 ± 1.4 µM

B2: Clone20R 78 bp (dsDNA)
DNA 1: CGGCGCAAATTCGTGACCAGTTGCATCAGCTGCGTGCGTAGAACGCTTTAATTGATAATCAAAGGCCGCAGAGAGCTC
DNA 2: GAGCTCTCTGCGGCCTTTGATTATCAATTAAAGCGTTCTACGCACGCAGCTGATGCAACTGGTCACGAATTTGCGCCG
Kd (HMfB [3]): 12.3 ± 27 µM | Kd (HMfA [4]): 7.34 ± 2.8 µM | Kd (HMfB [5]): 0.66 ± 0.047 µM

B3: Clone20 78 bp (dsDNA)
DNA 1: GGATCCCTGTCGGCACAGTTGAGCGATCAAAAACGCCGTAGAACGCTTTAATTGATAATCAAAGGCCGCAGAGAGCTC
DNA 2: GAGCTCTCTGCGGCCTTTGATTATCAATTAAAGCGTTCTACGGCGTTTTTGATCGCTCAACTGTGCCGACAGGGATCC
Kd (HMfB [6]): 0.243 ± 0.16 µM | Kd (HMfB D14A K30A E34A [7]): 19.6 ± 1.19 µM | Kd (HMfB [8]): 2.99 ± 0.81 µM | Kd (HMfA [9]): 3.75 ± 0.1 µM

B4: Nonspecific 78 bp (dsDNA)
DNA 1: CGGCGCAAATTCGTGACCAGTTGCATCAGCTGCGTGAGCTGTTTATCGCAGCATCGTAACAGGATAGTGAAGAAGACT
DNA 2: AGTCTTCTTCACTATCCTGTTACGATGCTGCGATAAACAGCTCACGCAGCTGATGCAACTGGTCACGAATTTGCGCCG
Kd (HMfB D14A K30A E34A [10]): 22 ± 0.71 µM | Kd (HMfB [11]): 0.915 ± 0.089 µM | Kd (HMfA [12]): 16.5 ± 6.7 µM
